Patent US20230265151A1, “GIP/GLP1 CO-AGONIST COMPOUNDS” (priority 2020, published 2023)
*1 amine or outer side, *2 acyl side, *3 side chain or, on linkers, in order; H or OH if unused. Where no end group is shown, it is not given here. Side-chain parts run from the residue outwards. [ ]: non-standard residue; d: D form. The star is where a group is joined. Decanoyl(10-(4-HOOC-PhO)) = O=C(O)c1ccc(OCCCCCCCCCC(=O)*)cc1; αMePhe(2-F) = C[C@](N)(Cc1ccccc1F)C(=O)O; γGlu = O=C(O)[C@H](CCC(=O)[*:2])N[*:1]; C14 diacid = O=C(O)CCCCCCCCCCCCC(=O)*; αMeY = C[C@](N)(Cc1ccc(O)cc1)C(=O)O; αMeL = CC(C)C[C@](C)(N)C(=O)O; Orn = NCCC[C@H](N)C(=O)O; AEEA = NCCOCCOCC(=O)O; Aib = CC(C)(N)C(=O)O

Tests used:
Test in all cases: cell-based or functional assay
[1] = target: T1, human GIP receptor (human) (UniProt P48546)
T1 sequence (looked up): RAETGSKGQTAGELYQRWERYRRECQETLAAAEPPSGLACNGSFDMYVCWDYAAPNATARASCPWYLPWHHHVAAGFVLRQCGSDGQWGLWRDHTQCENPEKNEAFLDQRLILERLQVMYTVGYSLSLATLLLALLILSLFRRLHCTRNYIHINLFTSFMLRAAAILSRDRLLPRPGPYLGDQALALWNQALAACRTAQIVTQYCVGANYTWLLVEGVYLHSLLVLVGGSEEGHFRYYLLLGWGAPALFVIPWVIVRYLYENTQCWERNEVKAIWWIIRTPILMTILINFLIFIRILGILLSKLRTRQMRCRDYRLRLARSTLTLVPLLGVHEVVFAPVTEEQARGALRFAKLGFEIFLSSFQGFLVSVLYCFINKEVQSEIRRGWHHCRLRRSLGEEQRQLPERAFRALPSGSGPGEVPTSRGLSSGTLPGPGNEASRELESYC

[2] = target: human glucagon receptor (human) (UniProt P47871)
hGLP-1R = hGLP-1R (Homo sapiens, UniProt P43220)
human glucagon receptor [3] = target: human glucagon receptor (human, UniProt P47871 26-477)
human GLP-1 receptor [4] = target: human GLP-1 receptor (human, UniProt P43220 24-463)
human GIP receptor [5] = target: T2, human GIP receptor (human, UniProt P48546 22-466)
T2 sequence (looked up): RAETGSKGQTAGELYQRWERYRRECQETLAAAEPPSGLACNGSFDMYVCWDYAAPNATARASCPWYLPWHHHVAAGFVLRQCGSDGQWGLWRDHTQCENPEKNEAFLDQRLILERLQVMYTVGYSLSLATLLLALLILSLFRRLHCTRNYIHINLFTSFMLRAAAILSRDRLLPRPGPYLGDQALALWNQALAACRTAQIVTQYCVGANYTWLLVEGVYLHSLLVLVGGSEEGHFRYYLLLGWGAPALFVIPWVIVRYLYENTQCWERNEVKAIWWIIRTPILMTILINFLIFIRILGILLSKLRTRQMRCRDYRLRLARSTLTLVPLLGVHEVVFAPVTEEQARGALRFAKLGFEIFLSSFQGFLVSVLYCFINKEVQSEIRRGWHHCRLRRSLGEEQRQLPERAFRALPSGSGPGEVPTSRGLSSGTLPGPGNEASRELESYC

human GIP receptor [6] = target: T3, human GIP receptor (human, UniProt P48546 22-466); remark: listed apart in the source
T3 sequence (looked up): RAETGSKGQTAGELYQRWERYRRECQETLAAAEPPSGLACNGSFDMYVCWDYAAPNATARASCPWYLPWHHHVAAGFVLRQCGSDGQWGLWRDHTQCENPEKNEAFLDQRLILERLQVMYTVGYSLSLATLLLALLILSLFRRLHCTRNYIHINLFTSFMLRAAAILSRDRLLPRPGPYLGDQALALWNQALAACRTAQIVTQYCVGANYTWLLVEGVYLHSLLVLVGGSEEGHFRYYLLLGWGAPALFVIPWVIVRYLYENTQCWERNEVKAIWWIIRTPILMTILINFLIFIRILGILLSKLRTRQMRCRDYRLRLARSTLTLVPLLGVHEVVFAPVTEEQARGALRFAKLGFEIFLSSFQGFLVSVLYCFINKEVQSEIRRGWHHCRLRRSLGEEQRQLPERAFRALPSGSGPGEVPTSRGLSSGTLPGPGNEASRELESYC

human glucagon receptor [7] = target: human glucagon receptor (human, UniProt P47871 26-477); remark: listed apart in the source
Target sequence in this assay (P47871 26-477): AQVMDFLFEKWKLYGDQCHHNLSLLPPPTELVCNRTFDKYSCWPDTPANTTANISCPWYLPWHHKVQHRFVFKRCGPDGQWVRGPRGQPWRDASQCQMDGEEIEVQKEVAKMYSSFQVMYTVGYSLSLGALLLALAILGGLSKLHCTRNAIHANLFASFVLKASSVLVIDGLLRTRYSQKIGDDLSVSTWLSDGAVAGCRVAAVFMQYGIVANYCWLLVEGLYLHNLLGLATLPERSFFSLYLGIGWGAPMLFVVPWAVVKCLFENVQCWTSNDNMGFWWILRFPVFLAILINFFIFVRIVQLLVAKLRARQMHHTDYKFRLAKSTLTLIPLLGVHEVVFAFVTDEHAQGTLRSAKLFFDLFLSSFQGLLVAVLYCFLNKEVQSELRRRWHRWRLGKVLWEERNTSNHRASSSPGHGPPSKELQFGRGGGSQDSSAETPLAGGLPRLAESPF

human GLP-1 receptor [8] = target: human GLP-1 receptor (human, UniProt P43220 24-463); remark: listed apart in the source

Row | Binder | cAMP EC50 [1] [nM] | cAMP Emax [1] [%] | cAMP EC50 [2] [µM] | cAMP EC50 (hGLP-1R) [nM] | cAMP Emax (hGLP-1R) [%] | cAMP EC50 (1.0% HSA) (human glucagon receptor [3]) [µM] | cAMP EC50 (1.0% HSA) (human GLP-1 receptor [4]) [nM] | cAMP Emax (1.0% HSA) (human GLP-1 receptor [4]) [%] | cAMP EC50 (1.0% HSA) (human GIP receptor [5]) [nM] | cAMP Emax (1.0% HSA) (human GIP receptor [5]) [%] | cAMP EC50 (1.0% HSA) (human GIP receptor [6]) [nM] | cAMP EC50 (1.0% HSA) (human glucagon receptor [7]) [µM] | cAMP EC50 (1.0% HSA) (human GLP-1 receptor [8]) [nM] | cAMP Emax (1.0% HSA) (human GIP receptor [6]) [%] | cAMP Emax (1.0% HSA) (human GLP-1 receptor [8]) [%]
1 | Y[Aib]EGT[αMePhe(2-F)]TSDV[Aib]I[αMeL]LD[Orn]K([AEEA-AEEA-γGlu-C14 diacid])AQ[Aib][Orn]FI[dE][αMeY]LIK([AEEA-AEEA-γGlu-C14 diacid])GGPSSGAPPPS-NH2 [Example 350] | 0.0288 | 101 | > 9.95 | 0.202 | 95.9 | > 9.95 | 6.4 | 91.4 | 5.82 | – | – | – | – | – | –
2 | YXEGTXTSDXXIXLDXKAQXXFIXXLIKGGPSSGAPPPS (Y-Aib-EGT-αMeF(2F)-TSD-4Pal-Aib-I-αMeL-LD-Orn-K((2-[2-(2-Amino-ethoxy)-ethoxy]-acetyl)2-(α-Glu)-(10-(4-carboxyphenoxy)decanoyl))AQ-Aib-Om-FI-(D-Glu)-αMeY-LIK((2-[2-(2-Amino-ethoxy)-ethoxy]-acetyl)2-(γ-Glu)-(10-(4-carboxyphenoxy)decanoyl))GGPSSGAPPPS-NH2) [Example 351] | 0.0185 | 102 | > 9.95 | 0.397 | 100 | > 9.95 | 5.8 | 91 | 0.722 | 67.9 | – | – | – | – | –
3 | YXEGTXTSDYXIXLDXIAQXEFIKXLIKGGPSSGAPPPS (Y-Aib-EGT-αMeF(2F)-TSDY-Aib-I-αMeL-LD-Orn-IAQ-Aib-EFIK((2-[2-(2-Amino-ethoxy)-ethoxy]-acetyl)2-(γ-Glu)-(2-[2-(2-Amino-ethoxy)-ethoxy]-acetyl)-CO-(CH2)12-CO2H)-αMeY-LIK((2-[2-(2-Amino-ethoxy)-ethoxy]-acetyl)2-(γ-Glu)-(2-[2-(2-Amino-ethoxy)-ethoxy]-acetyl)-CO-(CH2)12-CO2H)GGPSSGAPPPS-NH2) [Example 363] | – | – | – | – | – | – | – | – | – | – | 0.976 | > 9.95 | 14.3 | – | –
4 | YXEGTXTSDXXIXLDXIAQXXFIKXLIKGGPSSGAPPPS (Y-Aib-EGT-αMeF(2F)-TSD-4Pal-Aib-I-αMeL-LD-Orn-IAQ-Aib-Orn-FIK((2-[2-(2-Amino-ethoxy)-ethoxy]-acetyl)2-(γ-Glu)-(10-(4-carboxyphenoxy)decanoyl))-αMeY-LIK((2-[2-(2-Amino-ethoxy)-ethoxy]-acetyl)2-(γ-Glu)-(10-(4-carboxyphenoxy)decanoyl))GGPSSGAPPPS-NH2) [Example 354] | – | – | – | – | – | – | – | – | – | – | 0.857 | > 9.95 | 7.25 | 67.5 | 95.9
5 | YXEGTXTSDYXIXLDXKAQXXFIXXLIKGGPSSGAPPPS (Y-Aib-EGT-αMeF(2F)-TSDY-Aib-I-αMeL-LD-Orn-K((2-[2-(2-Amino-ethoxy)-ethoxy]-acetyl)2-(γ-Glu)-(10-(4-carboxyphenoxy)decanoyl))AQ-Aib-Om-FI-(D-Glu)-αMeY-LIK((2-[2-(2-Amino-ethoxy)-ethoxy]-acetyl)2-(γ-Glu)-(10-(4-carboxyphenoxy)decanoyl))GGPSSGAPPPS-NH2) [Example 352] | 0.0106 | 98.3 | > 9.95 | 0.262 | 99.5 | > 9.95 | 5.46 | 93.5 | 0.277 | 71.3 | – | – | – | – | –
6 | YXEGTXTSDYXIXLDXIAQXEFIKXLIKGGPSSGAPPPS (Y-Aib-EGT-αMeF(2F)-TSDY-Aib-I-αMeL-LD-Orn-IAQ-Aib-EFIK((2-[2-(2-Amino-ethoxy)-ethoxy]-acetyl)-(γ-Glu)-(2-[2-(2-Amino-ethoxy)-ethoxy]-acetyl)-CO-(CH2)12-CO2H)-αMeY-LIK((2-[2-(2-Amino-ethoxy)-ethoxy]-acetyl)-(γ-Glu)-(2-[2-(2-Amino-ethoxy)-ethoxy]-acetyl)-CO-(CH2)12-CO2H)GGPSSGAPPPS-NH2) [Example 365] | – | – | – | – | – | – | – | – | – | – | 1.93 | > 9.95 | 22.3 | – | 91
7 | YXEGTXTSDYXIXLDXIAQXXFIKXLIKGGPSSGAPPPS (Y-Aib-EGT-αMeF(2F)-TSDY-Aib-I-αMeL-LD-Orn-IAQ-Aib-Orn-FIK((2-[2-(2-Amino-ethoxy)-ethoxy]-acetyl)2-(γ-Glu)-(10-(4-carboxyphenoxy)decanoyl))-αMeY-LIK((2-[2-(2-Amino-ethoxy)-ethoxy]-acetyl)2-(γ-Glu)-(10-(4-carboxyphenoxy)decanoyl))GGPSSGAPPPS-NH2) [Example 355] | – | – | – | – | – | – | – | – | – | – | 1.81 | > 9.95 | 11.3 | – | 109
8 | YXEGTXTSDYXIXLDXIAQXEFIKXLIKGGPSSGAPPPS (Y-Aib-EGT-αMeF(2F)-TSDY-Aib-I-αMeL-LD-Orn-IAQ-Aib-EFIK((2-[2-(2-Amino-ethoxy)-ethoxy]-acetyl)-(γ-Glu)-(2-[2-(2-Amino-ethoxy)-ethoxy]-acetyl)2-CO-(CH2)12-CO2H)-αMeY-LIK((2-[2-(2-Amino-ethoxy)-ethoxy]-acetyl)-(γ-Glu)-(2-[2-(2-Amino-ethoxy)-ethoxy]-acetyl)2-CO-(CH2)12-CO2H)GGPSSGAPPPS-NH2) [Example 364] | – | – | – | – | – | – | – | – | – | – | 0.895 | > 9.95 | 13 | – | –
9 | Y[Aib]EGT[αMePhe(2-F)]TSDV[Aib]I[αMeL]LD[Orn]IAQ[Aib][Orn]FIK([AEEA-AEEA-γGlu-Decanoyl(10-(4-HOOC-PhO))])[αMeY]LIK([AEEA-AEEA-γGlu-Decanoyl(10-(4-HOOC-PhO))])GGPSSGAPPPS-NH2 [Example 356] | – | – | – | – | – | – | – | – | – | – | 2.47 | > 9.95 | 23.4 | 82.7 | –
